Results on two molecules are retold here after publication PMC5817203, “Characterization of feedback-resistant mevalonate kinases from the methanogenic archaeons Methanosaeta concilii and Methanocella paludicola” (Microbiology, 2017).

Data set [1] concerns the target mevalonate kinase from Methanosaeta concilii GP6 (Methanosaeta concilii GP6). The data set is described as follows: SEC; gel filtration of the purified enzyme; apparent mass compared with the mass calculated from the sequence; column and buffer not told.
Data set [2] deals with the molecule itself. The data set is described as above.

For the molecule “mevalonate kinase from Methanosaeta concilii GP6 (enzyme)”, in data set [1], the stoichiometry N is 4.

B1: mevalonate kinase from Methanocella paludicola SANAE (enzyme, UniProt D1YZ39 1-299, looked up)
chain: MTMCSAPGKVFLFGEHAVVYGKRAIACAIDLRTTVEVSRKSRGVHIHSAFKDEPDKNLYIKTAVKRMQKCADIRNVNIAVSSRIPVASGLGSSAAVTVATIGALNEEFSAGLSKKDIAYMAYQTELEVQGAASPTDTFVSTMGGTVVVPDMRTLPPITCGIVVGHTGISKSTSRMVSRVRTLKEKYPDVIDGIMDSIGDISARGEDLIKQNDYRSIGELMNVNQGLLDALGITIPELSLQIYAARQHGAYGAKITGAGGGGCMVAICDDKNCKEIATAIGRSYGDSFISKPTAEGIFIQ
notes: codon-optimised synthetic gene, coding part cloned NdeI/EcoRI into pET-28b(+); No tag removal is described; also called MVK^mpd; mpd; source: E. coli BL21 (DE3), pET-28b(+), purified (His-Trap HP, dialysis)
Consider B1, for which the “stoichiometry N” value in data set [2] is 2.
